In patent US20130007924A1 one finds IC50 and percent displacement of 125I Cry1Ab data, which are given here for 2 substances.

What is called pIC50 is the negative decadic logarithm of the IC50, by convention in mol/L.

pIC50: −log10 of the molar value.

In assay [1] the target is putative receptor proteins in brush border membrane vesicles (BBMV) from European corn borer (Ostrinia nubilalis) larval midgut (Ostrinia nubilalis). The assay can be described thus: homologous competition: unlabeled Cry1Ab against 0.5 nM 125I Cry1Ab on ECB BBMV.
The target is the same in assay [2]. The assay can be described thus: heterologous competition: unlabeled Cry2Aa at 1,000 nM against 0.5 nM 125I Cry1Ab on ECB BBMV.

Regarding “Cry1Ab protein (truncated Cry toxin) (from UniProt P0A370 29-612)”, the pIC50 in assay [1] was 8.52. For “Cry2Aa protein (from UniProt P0A377 1-633)”, in assay [2], the percent displacement of 125I Cry1Ab at 1,000 nM competitor was less than 50%.
